According to the supplement of paper PMC10724198:
± gives the standard deviation of the averaged measurements.

System: Saccharomyces cerevisiae
Experiment: protein stability index of tFT-peptide fusion (C-terminal peptide) (PSI (0-1 scale)); higher = more stable (slower turnover)
Settings: temperature: 30 C
Protocol: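 MPS profiling in S. cerevisiae of the yeast C-terminome library: the last 12 aa of each annotated ORF are fused to the C-terminus of a sfGFP-mCherry timer, after a GGGS linker. Cells are FACS-sorted into 8 mCherry/sfGFP bins and deep-sequenced. PSI runs from 0 (unstable) to 1 (stable); wild type and das1Δ backgrounds, two technical replicates each.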

[1] = genetic background: das1 deletion

For PAKFGIQFQYST [MDM10 C-terminal 12 aa], the protein stability index [1] was 0.697 ± 0.021 and the protein stability index (genetic background: wild type) was 0.662 ± 0.038.

For PLWNQRRDDLFH [NIT2 C-terminal 12 aa], the protein stability index [1] was 0.74 ± 0.042 and the protein stability index (genetic background: wild type) was 0.744 ± 0.055.

With IEAATQAFLDSQ [WIP1 C-terminal 12 aa] the protein stability index [1] was 0.698 ± 0.013 and the protein stability index (genetic background: wild type) was 0.715 ± 0.051.

Work on PKETLHRSDHQG [YPR039W C-terminal 12 aa] yielded a protein stability index [1] of 0.6938 ± 0.0051 and a protein stability index (genetic background: wild type) of 0.689 ± 0.076.

With GYSPKPISKKEE [ALE1 C-terminal 12 aa] the protein stability index [1] was 0.719 ± 0.011 and the protein stability index (genetic background: wild type) was 0.648 ± 0.012.

Sequence GVFSKSSAELRF [YDL016C C-terminal 12 aa] has a protein stability index [1] of 0.715 ± 0.013 and a protein stability index (genetic background: wild type) of 0.706 ± 0.023.

In the case of NQRKANDNKRRR [RRP17 C-terminal 12 aa], the protein stability index [1] is reported as 0.7188 ± 0.001 and the protein stability index (genetic background: wild type) is reported as 0.77 ± 0.058.

GGNSSKKGKKKR [RQC2 C-terminal 12 aa] showed a protein stability index [1] of 0.6835 ± 0.00078 and a protein stability index (genetic background: wild type) of 0.724 ± 0.022.

TEAMNSEIDGTK [ATG16 C-terminal 12 aa] gave a protein stability index [1] of 0.686 ± 0.017 and a protein stability index (genetic background: wild type) of 0.703 ± 0.042.

In the case of RGSCDNWKKRQN [YBL044W C-terminal 12 aa], the protein stability index [1] is reported as 0.726 ± 0.021 and the protein stability index (genetic background: wild type) is reported as 0.482 ± 0.0072.

For ARAAEERMKKKY [VMS1 C-terminal 12 aa], the protein stability index [1] was 0.671 ± 0.023 and the protein stability index (genetic background: wild type) was 0.663 ± 0.038.

For KKKFYKQYHFDL [PDR8 C-terminal 12 aa], the protein stability index [1] was 0.715 ± 0.016 and the protein stability index (genetic background: wild type) was 0.727 ± 0.035.

Sequence DLEMEVIAVEKN [MMF1 C-terminal 12 aa] has a protein stability index [1] of 0.681 ± 0.0085 and a protein stability index (genetic background: wild type) of 0.674 ± 0.034.

With PQGFEIIELLNF [ROM1 C-terminal 12 aa] the protein stability index [1] was 0.717 ± 0.044 and the protein stability index (genetic background: wild type) was 0.718 ± 0.013.

Work on VFQRAIEKALGE [STR2 C-terminal 12 aa] yielded a protein stability index [1] of 0.707 ± 0.011 and a protein stability index (genetic background: wild type) of 0.716 ± 0.013.

Work on EQNFHFQFPPTN [IOC2 C-terminal 12 aa] yielded a protein stability index [1] of 0.7147 ± 0.0049 and a protein stability index (genetic background: wild type) of 0.729 ± 0.021.

For “PHYAGCLEDIIF [YER066C-A C-terminal 12 aa]”, the protein stability index [1] was 0.719 ± 0.046 and the protein stability index (genetic background: wild type) was 0.74 ± 0.035.

With ISKKYYSRYDKK [OM14 C-terminal 12 aa] the protein stability index [1] was 0.683 ± 0.037 and the protein stability index (genetic background: wild type) was 0.616 ± 0.025.

Sequence PAAISGTVPSIF [DIN7 C-terminal 12 aa] has a protein stability index [1] of 0.715 ± 0.021 and a protein stability index (genetic background: wild type) of 0.677 ± 0.017.

Work on AVETLKKGGFLP [YDL177C C-terminal 12 aa] yielded a protein stability index [1] of 0.7 ± 0.013 and a protein stability index (genetic background: wild type) of 0.685 ± 0.0071.

With YVSHKGFIVEDM [RPL9B C-terminal 12 aa] the protein stability index [1] was 0.695 ± 0.0088 and the protein stability index (genetic background: wild type) was 0.6932 ± 0.006.

Sequence YTINYETNTVEY [NUP133 C-terminal 12 aa] has a protein stability index [1] of 0.641 ± 0.024 and a protein stability index (genetic background: wild type) of 0.6455 ± 0.0026.

For TKKLLRDYFSQF [SMN1 C-terminal 12 aa], the protein stability index [1] was 0.712 ± 0.0096 and the protein stability index (genetic background: wild type) was 0.188 ± 0.014.

SKKDYSIDSVEM [TPO2 C-terminal 12 aa] gave a protein stability index [1] of 0.698 ± 0.0055 and a protein stability index (genetic background: wild type) of 0.677 ± 0.014.

FVLKTLNMNVTN [OST1 C-terminal 12 aa] was tested, and the protein stability index [1] was 0.681 ± 0.0095 and the protein stability index (genetic background: wild type) was 0.668 ± 0.0024.

Sequence YKNNWLILQQQD [KSP1 C-terminal 12 aa] has a protein stability index [1] of 0.694 ± 0.066 and a protein stability index (genetic background: wild type) of 0.703 ± 0.082.

For LLTAMSAQISFD [AAD16 C-terminal 12 aa], the protein stability index [1] was 0.735 ± 0.00072 and the protein stability index (genetic background: wild type) was 0.72 ± 0.012.

INPMPANFAELS [FAL1 C-terminal 12 aa] showed a protein stability index [1] of 0.721 ± 0.017 and a protein stability index (genetic background: wild type) of 0.689 ± 0.049.

Work on KNIKRDLRNVRI [TAX4 C-terminal 12 aa] yielded a protein stability index [1] of 0.7 ± 0.045 and a protein stability index (genetic background: wild type) of 0.6514 ± 0.0059.

IPTSFFFFNSIV [YKL123W C-terminal 12 aa] gave a protein stability index [1] of 0.734 ± 0.034 and a protein stability index (genetic background: wild type) of 0.305 ± 0.0033.

For DWVSHGGDKLDL [RDL1 C-terminal 12 aa], the protein stability index [1] was 0.703 ± 0.042 and the protein stability index (genetic background: wild type) was 0.704 ± 0.012.

For “CNLFSERKPVNH [YGL188C-A C-terminal 12 aa]”, the protein stability index [1] was 0.6966 ± 0.0021 and the protein stability index (genetic background: wild type) was 0.691 ± 0.011.

In the case of GKVAKYIFDNIC [BNA7 C-terminal 12 aa], the protein stability index [1] is reported as 0.696 ± 0.015 and the protein stability index (genetic background: wild type) is reported as 0.722 ± 0.024.

Sequence KICEVAARQKWI [AAN1 C-terminal 12 aa] has a protein stability index [1] of 0.6888 ± 0.0048 and a protein stability index (genetic background: wild type) of 0.627 ± 0.02.
